Laboratory results taken from patent publication US20030022275, “HUMAN NK-3 RELATED PROSTATE SPECIFIC GENE-1” (published 2003).

B1: mutated C site (CACG) (dsDNA)
DNA 1: CACTGCCCAGTCACGTGTTCGTGA
DNA 2: TCACGAACACGTGACTGGGCAGTG
B2: site 6-19 (mutated TAAT core) (dsDNA)
DNA 1: ACACTACTTGGAGGC
DNA 2: GCCTCCAAGTAGTGT
B3: C site (NKX2.1 consensus, CAAG core) (dsDNA)
DNA 1: CACTGCCCAGTCAAGTGTTCTTGA
DNA 2: TCAAGAACACTTGACTGGGCAGTG

Tests used:
[1] = molecular target: T1, NKX3.1 homeodomain (NKX3.1HD) (Homo sapiens, UniProt Q99801 SEQ:122-188); assay: EMSA; human protein stated to behave identically to murine; settings: tags: N-terminal 6xHis (pQE-9, E. coli); label: 32P
Procedure: (§1) The DNA binding experiments were performed as follows. Briefly, increasing amounts of protein were incubated in binding buffer [10 mM Tris-HCl ([…]), 50 mM NaCl, 5% glycerol, 5% sucrose, 0.2 mM EDTA, 7.5 mM MgCl₂, 0.5 mg/mL bovine serum albumin, 0.1% NP-40, 10 mM DTT, 500 μg of poly-didC] with 4×10⁴ cpm of ³²P-labeled, double stranded oligonucleotide for 20 min at room temperature. The sequences of the DNA binding sites were as follows (top strand shown):
(§2) The DNA binding specificity of NKX3.1HD was examined by gel mobility shift analysis using various DNA sites identified for NK-like and Antennapedia-like homeodomains. The DNA sites were as follows: (i) the consensus DNA site for the NKX2.1 homeodomain (TCAAGTG) (Guazzi, S. et al., EMBO J. 9:3631-3639 (1990)) and a mutated version of this site that contains nucleotide substitutions within the CAAG core (TCACGTG); and (ii) the consensus DNA site identified for an Antennapedia-like homeodomain (Msx1) (CTAATTG), a mutated version of this site that contains nucleotide substitutions within the TAAT core (CTACTTG), or one that contains nucleotide substitutions 3′ of the TAAT core (CTAATGG) (Catron, K. M. et al., Mol. Cell. Biol. 13;2354-2365 (1993); Guazzi, S. et al., EMBO J. 9:3631-3639 (1990)). […]

[2] = molecular target: T1, NKX3.1 homeodomain (NKX3.1HD); assay: EMSA; human protein stated to behave identically to murine in DNA binding; settings: tags: N-terminal 6xHis (pQE-9, E. coli); label: 32P
Procedure: as §1, §2

Binder | binding result [1] | binding result [2]
B1 | no binding | 
B2 | no binding | 
B3 |  | binds
